According to patent US8889621B2, “Inhibiting binding of FGF23 to the binary FGFR-Klotho complex for the treatment of hypophosphatemia” (New York University, priority 2009, dated 2014):
“Also recorded” adds a separate entry of the source.

Tested on: NaPi-2A
Assay: NaPi-2A protein abundance in apical brush border membrane of rat kidney
Format: in vivo
Conditions: IV 0.1 μg kg body weight^−1, 3 h post injection, vs vehicle
Experimental: Immunoblot analysis of NaPi-2A and NaPi-2C protein abundance in renal cortex tissue and isolated brush border membrane vesicles (BBMV), and NaPi-2A immunostaining of renal tissue were performed as described (Bacic et al., “Activation of Dopamine Dl-like Receptors Induces Acute Internalization of the Renal Na^+/phosphate Cotransporter NaPi-IIa in Mouse Kidney and OK cells,” Am J Physiol Renal Physiol 288(4):F740-747 (2005), Loffing et al., “Renal Na/H Exchanger NHE-3 and Na—PO4 Cotransporter NaPi-2 Protein Expression in Glucocorticoid Excess and Deficient States,” J Am Soc Nephrol 9(9):1560-1567 (1998), Moe et al., “Dietary NaCl Modulates Na(+)-H+ Antiporter Activity in Renal Cortical Apical Membrane Vesicles,” Am J Physiol 260(1 Pt 2):F130-137 (1991), which are hereby incorporated by reference in their entirety).
For immunoblot, rat kidney cortices were dissected and homogenized, and BBMV were isolated (Loffing et al., “Renal Na/H Exchanger NHE-3 and Na—PO4 Cotransporter NaPi-2 Protein Expression in Glucocorticoid Excess and Deficient States,” J Am Soc Nephrol 9(9):1560-1567 (1998), Moe et al., “Dietary NaCl Modulates Na(+)-H+ Antiporter Activity in Renal Cortical Apical Membrane Vesicles. Am J Physiol 260(1 Pt 2):F130-137 (1991), which are hereby incorporated by reference in their entirety). […]

Row | Molecule | NaPi-2A protein expression in the apical brush border membrane
1 | FGF23^28-251: human FGF23 (A28 to I251), bioactive full-length ligand expressed in E. coli (protein, listed as Homo sapiens) ASPLLGSSWGGLIHLYTATARNSYHLQIHKNGHVDGAPHQTIYSALMIRSEDAGFVVITGVMSRRYLCMDFRGNIFGSHYFDPENCRFQHQTLENGYDVYHSPQYHFLVSLGRAKRAFLPGMNPPPYSQFLSRRNEIPLIHFNTPIPRRHTRSAEDDSERDPLNVLKPRARMTPAPASCSQELPSAEDNSPMASDPLGVVRGGRVNTHAGGTGPEGCRPFAKFI | decrease; also recorded: diminished
2 | FGF23^180-251: 72-amino acid C-terminal tail of human FGF23 (S180 to I251), expressed in E. coli (protein, listed as Homo sapiens) SAEDDSERDPLNVLKPRARMTPAPASCSQELPSAEDNSPMASDPLGVVRGGRVNTHAGGTGPEGCRPFAKFI | increased
